Substrate: Nc1ncnc2c1ncn2[C@@H]1O[C@H](COP(=O)(O)OP(=O)(O)OP(=O)(O)O)[C@@H](O)[C@H]1O
Assay: Km from NMN production assay with varied ATP; phosphorylates His247
Type: biochemical, Homo sapiens
Settings: Mg2+ phosphorylation at His247

B1: NAMPT (nicotinamide phosphoribosyltransferase) (Homo sapiens) (protein)
chain: MNPAAEAEFNILLATDSYKVTHYKQYPPNTSKVYSYFECREKKTENSKLRKVKYEETVFYGLQYILNKYLKGKVVTKEKIQEAKDVYKEHFQDDVFNEKGWNYILEKYDGHLPIEIKAVPEGFVIPRGNVLFTVENTDPECYWLTNWIETILVQSWYPITVATNSREQKKILAKYLLETSGNLDGLEYKLHDFGYRGVSSQETAGIGASAHLVNFKGTDTVAGLALIKKYYGTKDPVPGYSVPAAEHSTITAWGKDHEKDAFEHIVTQFSSVPVSVVSDSYDIYNACEKIWGEDLRHLIVSRSTQAPLIIRPDSGNPLDTVLKVLEILGKKFPVTENSKGYKLLPPYLRVIQGDGVDINTLQEIVEGMKQKMWSIENIAFGSGGGLLQKLTRDLLNCSFKCSYVVTNGLGINVFKDPVADPNKRSKKGRLSLHRTPAGNFVTLEEGKGDLEEYGQDLLHTVFKNGKVTKSYSFDEIRKNAQLNIELEAAHH
notes: recombinant, N-terminal His tag removed with thrombin
How did the Km turn out when B1 was run?
Its Km is 1730 ± 320 µM.

Source: article PMC6642140, “Boosting NAD^+ with a small molecule that activates NAMPT” (Nature Communications, 2019)
